B1: DNA repair protein RAD9 (Saccharomyces cerevisiae), P14737 (parent)
chain: MSGQLVQWKSSPDRVTQSAIKEALHSPLADGDMNEMNVPVDPLENKVNSTNIIEGSPKANPNPVKFMNTSEIFQKSLGLLDESPRHDDELNIEVGDNDRPNANILHNERTPDLDRIANFFKSNRTPGKENLLTKYQSSDLEDTPLMLRKKMTFQTPTDPLEQKTFKKLKSDTGFCYYGEQNDGEENASLEVTEADATFVQMAERSADNYDCALEGIVTPKRYKDELSKSGGMQDERVQKTQIMISAESPNSISSYDKNKITGNGRTTRNVNKVFNNNEDNIGAIEEKNPVKKKSENYSSDDLRERNNQIIQSNESEEINELEKNLNVSGRENDVNNLDIDINSAVSGTPSRNNAEEEMYSSESVNNREPSKKWIFRYSKDKTENNSNRSTQIVNNPRTQEMPLDSISIDTQPLSKSFNTETNNELETQIIVSSLSQGISAQKGPVFHSTGQTEEIKTQIINSPEQNALNATFETPVTLSRINFEPILEVPETSSPSKNTMSKPSNSSPIPKEKDTFNIHEREVETNNVFSNDIQNSSNAATRDDIIIAGSSDFNEQKEITDRIYLQLSGKQISDSGSDETERMSPNELDTKKESTIMSEVELTQELPEVEEQQDLQTSPKKLVVEEETLMEIKKSKGNSLQLHDDNKECNSDKQDGTESLDVALIEHESKGQSSELQKNLMQLFPSESQEIIQNRRTIKRRQKDTIEIGEEEENRSTKTSPTKHLKRNSDLDAASIKREPSCSITIQTGETGSGKDSKEQSYVFPEGIRTADNSFLSKDDIIFGNAVWCQYTWNYKFYPGILLEVDTNQDGCWIYFETGRSLTKDEDIYYLDIRIGDAVTFDGNEYVVVGLECRSHDLNIIRCIRGYDTVHLKKKNASGLLGKRTLIKALSSISLDLSEWAKRAKIILEDNEKNKGDAYRYLRHPIRGRKSMTNVLSPKKHTDDEKDINTHTEVYNNEIESSSEKKEIVKKDSRDALAEHAGAPSLLFSSGEIRTGNVFDKCIFVLTSLFENREELRQTIESQGGTVIESGFSTLFNFTHPLAKSLVNKGNTDNIRELALKLAWKPHSLFADCRFACLITKRHLRSLKYLETLALGWPTLHWKFISACIEKKRIVPHLIYQYLLPSGESFRLSLDSPSKGGIIKSNNIFSFYTQFLRGSNLRDQICGVKKMLNDYIVIVWGRSELDSFVKFAFACLSAGRMLTIDLPNIDVDDTEPLLNALDSLVPRIGSELSNRKLKFLIYANENNGKSQMKLLERLRSQISLKFKKFNYIFHTESKEWLIQTIINEDTGFHDDITDNDIYNTISEVR

Variants of: B1
Settings: with h2a1_yeast HTA1, P04911
h2a1_yeast HTA1, P04911, sequence (P04911 whole entry): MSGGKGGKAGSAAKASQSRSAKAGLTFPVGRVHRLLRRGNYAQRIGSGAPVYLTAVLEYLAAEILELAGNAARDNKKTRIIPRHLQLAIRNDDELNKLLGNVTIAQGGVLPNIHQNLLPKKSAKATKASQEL

Variant	effect of a mutation on the interaction
K1088M	disrupting interaction
